Consider one molecule from patent US20240288453A1 (NATIONAL UNIVERSITY CORPORATION TOKAI NATIONAL HIGHER …, published 2024).

The experiment has as its target T1, mouse TfR (mouse, UniProt Q62351 89-763, limits assumed).
T1 construct: The assay and the form of the protein are not described
Kind of experiment: not described.

T1 sequence (Q62351 89-763 limits assumed): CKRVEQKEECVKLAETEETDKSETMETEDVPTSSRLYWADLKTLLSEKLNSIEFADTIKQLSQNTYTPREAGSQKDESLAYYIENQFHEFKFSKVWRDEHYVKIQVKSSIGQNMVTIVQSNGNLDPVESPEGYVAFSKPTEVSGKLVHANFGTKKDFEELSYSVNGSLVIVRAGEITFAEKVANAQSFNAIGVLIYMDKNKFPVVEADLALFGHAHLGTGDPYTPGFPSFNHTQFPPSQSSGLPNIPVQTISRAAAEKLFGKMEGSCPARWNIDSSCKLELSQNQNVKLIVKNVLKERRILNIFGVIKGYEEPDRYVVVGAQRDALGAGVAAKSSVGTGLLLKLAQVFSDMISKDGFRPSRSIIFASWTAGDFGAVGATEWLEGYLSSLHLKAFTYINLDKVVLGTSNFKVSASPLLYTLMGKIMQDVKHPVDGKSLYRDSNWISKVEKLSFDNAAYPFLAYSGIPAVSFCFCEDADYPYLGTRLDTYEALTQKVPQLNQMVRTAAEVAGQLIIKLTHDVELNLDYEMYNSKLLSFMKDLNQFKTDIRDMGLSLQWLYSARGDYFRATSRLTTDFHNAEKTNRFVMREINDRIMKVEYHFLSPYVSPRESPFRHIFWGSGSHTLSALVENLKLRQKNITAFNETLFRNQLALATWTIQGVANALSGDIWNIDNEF

B1: TfR436 antibody (antibody, V domains shown)
VH: DVQLVQSGGGVVQPGRSLRLSCAASGFPFKSYGMHWVRQAPGKGLEWVAVISYDGSNKYYADSVKGRFTISRDNSKNTLYLQMNSLRGEDTAVYYCARDSNFWSGYYSPVDVWGQGTTVTVSS
VL: NFMLTQPHSVSESPGKTVTISCTRSSGSIASNSVQWYQQRPGSAPITVIYEDTQRPSGVPDRFSGSIDSSSNSASLTISGLQTEDEADYYCQSYDSAYHWVFGGGTKLAVL
notes: The antibody is the one of paragraphs 0090 and 0091 of WO2014/073641 and was detected with an anti-human IgG Fc gamma secondary antibody; also called parent antibody
As for B1, the binding result is recorded as “no binding”.
